In the supplement of paper PMC9170038:

Tested on: K4 kissing-loop RNA reporter
Assay: apparent KD of K4 kissing-loop reporter; higher = weaker reporter binding
Details: Eterna round: R107
Description: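 RNA-MaP round R107: designed RNA switches with theophylline, tryptophan, arginine or FMN aptamers are transcribed on-chip within common flanks. They are titrated with a labelled K4 kissing-loop RNA reporter in RNA-MaP buffer (100 mM Tris pH 7.5, 80 mM KCl, 4 mM MgCl2), without ligand or with the indicated ligand. Median apparent KD per design.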

[1] = input ligand: theophylline 20 uM
[2] = input ligand: tryptophan 2.4 mM
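Further: bound reporter read as fluorescence of individual clusters on recovered sequencing chips by microscopy, with normalized cluster intensities fitted with a binding model.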

Sequence	apparent KD of K4 kissing-loop reporter (input ligand: FMN 200 uM) [nM]	apparent KD of K4 kissing-loop reporter (input ligand: arginine 13.2 mM) [nM]	apparent KD of K4 kissing-loop reporter (input ligand: none) [nM]	apparent KD of K4 kissing-loop reporter [1] [nM]	apparent KD of K4 kissing-loop reporter [2] [nM]
AACUGUCAAGGCCGACAUUACUGAGGUGAUACCAGCAUCGAAAGAUGCCCUUGGCAGCACCAACUUGCAGUGAUGUUGCAAGUAA [BrourdMod 14 - Jieux - Exclusion - Theophylline A]	191	158	170	198	184
GUGCAGUGAUGUUGCACGAGGAAAGACGAUACCAGCCGCAAAUGUGGCCCUUGGCAGCGUGGGCUAGCACAAAAUAUGCUAGUCU [Ricegeusat]	131	113	119	98.9	108
UGGACGUUAUACAAUAAGUAUAACUGGGAUACCAGUGACGAAAGUCACCCUUGGCAGCUCAACUGCCAGUGAUGUUGGUAGUCCA [Astros-Eli-mod#5]	273	116	200	235	161
AGGUCAGCAGGAAGGAGCGCCCUGACAGGUUGCUGCCGUGGGCAGUGAUGUUGCUCAGUCCGGCAGGUAGGUCGCCUGCUGACCU	204	157	153	188	156
UUGUUUGGUUGAGAGGUUGGGCGAAAUGAUACCAGUAUAUAAGAAUACCCUUGGCAGCAUAAGAAAGAUAUAGUGAUGUUGUAUA [SSTheophA.L]	597	320	431	560	411
GGUAGCAUGGCGGCCGCCACUAAUACUUCGUAGCCUGUAGCCGGCUUCGUAGAGUGAUGUUCUAUUAGGACCGGGCCAUGCUACC	361	520	450	526	493
UGUCAUUGGUCGGCCGCCACUAUAAUAAAAGAGUGAUGUUCUAAAAGACGGACAAAAGUCUGUCAUAGGACCGGGACCGAUGACU [TrypBS 25 #SwitchBubble #StaticStem]	822	430	589	131	616
UGCAUGCUUGUAGUGAUGUUACAAGAUGAUACCAGUGCUUUUUUGCACCCUUGGCAGCGUCAUAGUGCAUGCACGUCGAAAGACG	219	153	211	320	201
GGUAGCAUGGCGGCCGCCACUGUUCGUGUUGCUAGCAGAUUCCAGUGAUGUUGGAAGCCUAGGUACAGGACCGGGCCAUGCUACC	105	115	131	102	103
CGCAGUGAUGUUGCUAUUAUUCUUGGUUAACGAGGACCGGUACGGCCGCCACUCGGUUUCUAUCUAAUCCAGUGUUUUUUUGAGU [#24 K4 Tryptophan A Exclusion]	425	506	556	573	246
GCACUGAAGUGAUGUUUUUGUGCACGUUGAAAGGAUAUCUGCUUGUAGAGAAGGUUCUGUUUGUGCGGAGCGGGCGUUACCGGCA [theeternabot_exclusion_KL_FMN_A_32]	307	269	310	285	308
CGCGCGCGUUGAGAGGCGCGCGCGAAUGAUACCAGUAUAUAAGAAUACCCUUGGCAGCAUAAGAAAGAUAUAGUGAUGUUGUAUA [SSTheophA.E]	67.3	264	293	466	188
AUUUUUUUGUCAGGAUAUUAGUGUGCGUUUGGUUUGUUAGUGAUGUUGAUAUUUUGUUUAUGUAUUUAAGAAGGGAUUUAGCGGU [aaeatemullin]	534	436	501	504	349
GGAUAGGACAGAGGAUAUGGACAGUCUACAAAGUAGGCUGAAUAAAUCCUUGAAUGGAGUGAUGUUCCAGAAGGCUGUCCUAUCG [FmnBX 22 #SwitchBubble #StaticStem #Palindromic]	337	384	503	481	426
UAAGAUAUAAGGGAUACCAGCCAUAAGGAAAGUGUGAUGAGUGAUGUUCUGACAAGCCAAGGCCCUUGGCAGCUUUAAUAGCAUC [Theophylline B Same State; Euphoria Solution]	303	198	471	263	235
ACCUACGAUCACAAAAGUGAUUGUAGGAUCUAGGAUAUGCUGAAGAGCAGAAGGAGAGUGAUGUUCUCAACUCACGAAAGUGAGA [whbob_Ex_FMNA__2th188]	382	222	198	258	175
AGACUACCACACUGUCAAUAGACAGUGGACUAGGAUAUGCUGAUAAGCAGAAGGAGUGAUGUUCCUAGGUAGUCAAUAAAAUAAU [FmnAX 13 G28]	357	301	378	532	396
AGCUCAGAGUGACUCGAUAAGAGUCACAAACGAGGACCGGUACGGCCGCCACUCGAAAUAACGAGAGUGAUGUUCUCGCUGGGCA [FiskerMod 1 - Jieux - Same State Tryptophan A]	829	463	1010	540	296
UGGAUAUAGUGAUGUUAUAUAGAGAUUGAUACCAGUUAAGAGAAUAGCCCUUGGCAGCAGAAAGAAGUAUCAUUAGAGAAGAAUG [ExTheophyl.Ac]	256	182	222	213	177
AACUGUCAAGGACAACAUUACUGAGGUGAUACCAGCAUCGAAAGAUGCCCUUGGCAGCACUAACUUGCAGUGAUGUUGCAAGUAA [BrourdMod 2 - Jieux - Exclusion - Theophylline A]	211	173	193	197	206
GCCUGGGCACGAAGGAGCGCCGUGACAGGUUACUGCCGUGGGCAGUGAUGUUGCUCAAUCUGGCAGGUAGGUCGCGUGCCCAGGC	137	86	184	107	121
